What was measured:
human CD33 I47G = human CD33 I47G (human, UniProt P20138 18-364); assay: flow cytometry on transfected cells, IgG
Protocol: (§1) An alanine scan on human CD33 was performed to the determine the residues on CD33 that are involved in binding to the antibodies investigated. […] Briefly, a mutation library of CD33 was created by high-throughput, site-directed mutagenesis. Each residue was individually mutated to alanine, with alanine codons mutated to serine. The mutant library was arrayed in 384-well microplates and transiently transfected into HEK293-T. Following transfection, cells were incubated with the indicated antibodies (IgG or Fab) at concentrations pre-determined using an independent immunofluorescence titration curve on wild type CD33. […] Binding of each antibody to each mutant clone was determined in duplicates. For each point, background fluorescence was subtracted from the raw data, which were then normalized to antibody reactivity with wild type CD33.
(§2) Antibodies were screened for binding to the human CD33 variants in IgG format. […] For each mutation, background fluorescence was subtracted from the raw data, which were then normalized to antibody reactivity with wild-type CD33.

human CD33 P48G = human CD33 P48G (human, UniProt P20138 18-364); assay: flow cytometry on transfected cells, IgG
Protocol: as §1, §2

human CD33 D51K = human CD33 D51K (human, UniProt P20138 18-364); assay: flow cytometry, transfected cells, IgG;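 note: CD33 point mutants transiently expressed in HEK293-T cells, antibody binding read by fluorescence, background subtracted and normalized to wild-type CD33 as 100%, duplicates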
Protocol: as §1, §2

human CD33 D51N = human CD33 D51N (human, UniProt P20138 18-364); assay: flow cytometry, transfected cells, IgG;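 note: CD33 point mutants transiently expressed in HEK293-T cells, antibody binding read by fluorescence, background subtracted and normalized to wild-type CD33 as 100%, duplicates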
human CD33 D51N, sequence (P20138 18-364 D51N limits assumed): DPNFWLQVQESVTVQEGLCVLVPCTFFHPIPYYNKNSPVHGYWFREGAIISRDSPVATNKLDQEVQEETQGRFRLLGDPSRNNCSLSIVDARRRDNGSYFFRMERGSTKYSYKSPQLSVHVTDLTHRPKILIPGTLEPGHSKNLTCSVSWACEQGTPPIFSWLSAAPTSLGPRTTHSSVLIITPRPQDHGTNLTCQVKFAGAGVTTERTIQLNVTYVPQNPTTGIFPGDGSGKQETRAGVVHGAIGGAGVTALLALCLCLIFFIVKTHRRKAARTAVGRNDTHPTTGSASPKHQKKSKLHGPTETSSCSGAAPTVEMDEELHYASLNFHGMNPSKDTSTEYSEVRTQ
Protocol: as §1, §2

human CD33 K52S = human CD33 K52S (human, UniProt P20138 18-364); assay: flow cytometry, transfected cells, IgG;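 note: CD33 point mutants transiently expressed in HEK293-T cells, antibody binding read by fluorescence, background subtracted and normalized to wild-type CD33 as 100%, duplicates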
Protocol: as §1, §2

human CD33 K52L = human CD33 K52L (human, UniProt P20138 18-364); assay: flow cytometry, transfected cells, IgG;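 note: CD33 point mutants transiently expressed in HEK293-T cells, antibody binding read by fluorescence, background subtracted and normalized to wild-type CD33 as 100%, duplicates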
Protocol: as §1, §2

human CD33 K52Y = human CD33 K52Y (human, UniProt P20138 18-364); assay: flow cytometry, transfected cells, IgG
Protocol: as §1, §2

human CD33 K52D = human CD33 K52D (human, UniProt P20138 18-364); assay: flow cytometry, transfected cells, IgG
Protocol: as §1, §2

human CD33 K52E = human CD33 K52E (human, UniProt P20138 18-364); assay: flow cytometry, transfected cells, IgG
Protocol: as §1, §2

human CD33 K52T = human CD33 K52T (human, UniProt P20138 18-364); assay: flow cytometry, transfected cells, IgG
human CD33 K52T, sequence (P20138 18-364 K52T limits assumed): as the sequence (P20138 18-364 D51N limits assumed) above, with N34D, K35T counted along it
Protocol: as §1, §2

human CD33 K52I = human CD33 K52I (human, UniProt P20138 18-364); assay: flow cytometry, transfected cells, IgG
human CD33 K52I, sequence (P20138 18-364 K52I limits assumed): as the sequence (P20138 18-364 D51N limits assumed) above, with N34D, K35I counted along it
Protocol: as §1, §2

human CD33 V56R = human CD33 V56R (human, UniProt P20138 18-364); assay: flow cytometry, transfected cells, IgG
Protocol: as §1, §2

human CD33 M120V = human CD33 M120V (human, UniProt P20138 18-364); assay: flow cytometry, transfected cells, IgG
Protocol: as §1, §2

human CD33 M120L = human CD33 M120L (human, UniProt P20138 18-364); assay: flow cytometry, transfected cells, IgG
Protocol: as §1, §2

human CD33 R122G = human CD33 R122G (human, UniProt P20138 18-364); assay: flow cytometry, transfected cells, IgG
human CD33 R122G, sequence (P20138 18-364 R122G limits assumed): as the sequence (P20138 18-364 D51N limits assumed) above, with N34D, R105G counted along it
Protocol: as §1, §2

human CD33 R122S = human CD33 R122S (human, UniProt P20138 18-364); assay: flow cytometry, transfected cells, IgG
human CD33 R122S, sequence (P20138 18-364 R122S limits assumed): as the sequence (P20138 18-364 D51N limits assumed) above, with N34D, R105S counted along it
Protocol: as §1, §2

human CD33 R122I = human CD33 R122I (human, UniProt P20138 18-364); assay: flow cytometry, transfected cells, IgG
Protocol: as §1, §2

human CD33 R122E = human CD33 R122E (human, UniProt P20138 18-364); assay: flow cytometry, transfected cells, IgG
human CD33 R122E, sequence (P20138 18-364 R122E limits assumed): as the sequence (P20138 18-364 D51N limits assumed) above, with N34D, R105E counted along it
Protocol: as §1, §2

human CD33 R122T = human CD33 R122T (human, UniProt P20138 18-364); assay: flow cytometry, transfected cells, IgG
Protocol: as §1, §2

human CD33 Y127H = human CD33 Y127H (human, UniProt P20138 18-364); assay: flow cytometry, transfected cells, IgG
Protocol: as §1, §2

human CD33 Y127E = human CD33 Y127E (human, UniProt P20138 18-364); assay: flow cytometry, transfected cells, IgG
Protocol: as §1, §2

human CD33 S131G = human CD33 S131G (human, UniProt P20138 18-364); assay: flow cytometry, transfected cells, IgG
Protocol: as §1, §2

human CD33 S131N = human CD33 S131N (human, UniProt P20138 18-364); assay: flow cytometry, transfected cells, IgG
Protocol: as §1, §2

human CD33 S131H = human CD33 S131H (human, UniProt P20138 18-364); assay: flow cytometry, transfected cells, IgG
Protocol: as §1, §2

human CD33 S131D = human CD33 S131D (human, UniProt P20138 18-364); assay: flow cytometry, transfected cells, IgG
human CD33 S131D, sequence (P20138 18-364 S131D limits assumed): as the sequence (P20138 18-364 D51N limits assumed) above, with N34D, S114D counted along it
Protocol: as §1, §2

human CD33 S131K = human CD33 S131K (human, UniProt P20138 18-364); assay: flow cytometry, transfected cells, IgG
human CD33 S131K, sequence (P20138 18-364 S131K limits assumed): as the sequence (P20138 18-364 D51N limits assumed) above, with N34D, S114K counted along it
Protocol: as §1, §2

human CD33 S131F = human CD33 S131F (human, UniProt P20138 18-364); assay: flow cytometry, transfected cells, IgG
human CD33 S131F, sequence (P20138 18-364 S131F limits assumed): as the sequence (P20138 18-364 D51N limits assumed) above, with N34D, S114F counted along it
Protocol: as §1, §2

human CD33 S131Y = human CD33 S131Y (human, UniProt P20138 18-364); assay: flow cytometry, transfected cells, IgG
Protocol: as §1, §2

human CD33 S131M = human CD33 S131M (human, UniProt P20138 18-364); assay: flow cytometry, transfected cells, IgG
Protocol: as §1, §2

human CD33 S131Q = human CD33 S131Q (human, UniProt P20138 18-364); assay: flow cytometry, transfected cells, IgG
Protocol: as §1, §2

human CD33 P132T = human CD33 P132T (human, UniProt P20138 18-364); assay: flow cytometry, transfected cells, IgG
Protocol: as §1, §2

human CD33 P132F = human CD33 P132F (human, UniProt P20138 18-364); assay: flow cytometry, transfected cells, IgG
Protocol: as §1, §2

human CD33 P132D = human CD33 P132D (human, UniProt P20138 18-364); assay: flow cytometry, transfected cells, IgG
Protocol: as §1, §2

human CD33 P132K = human CD33 P132K (human, UniProt P20138 18-364); assay: flow cytometry, transfected cells, IgG
human CD33 P132K, sequence (P20138 18-364 P132K limits assumed): as the sequence (P20138 18-364 D51N limits assumed) above, with N34D, P115K counted along it
Protocol: as §1, §2

human CD33 P132N = human CD33 P132N (human, UniProt P20138 18-364); assay: flow cytometry, transfected cells, IgG
human CD33 P132N, sequence (P20138 18-364 P132N limits assumed): as the sequence (P20138 18-364 D51N limits assumed) above, with N34D, P115N counted along it
Protocol: as §1, §2

human CD33 L134T = human CD33 L134T (human, UniProt P20138 18-364); assay: flow cytometry, transfected cells, IgG
Protocol: as §1, §2

human CD33 L134F = human CD33 L134F (human, UniProt P20138 18-364); assay: flow cytometry, transfected cells, IgG
Protocol: as §1, §2

human CD33 L134M = human CD33 L134M (human, UniProt P20138 18-364); assay: flow cytometry, transfected cells, IgG
human CD33 L134M, sequence (P20138 18-364 L134M limits assumed): as the sequence (P20138 18-364 D51N limits assumed) above, with N34D, L117M counted along it
Protocol: as §1, §2

human CD33 I47G, sequence (P20138 18-364 I47G limits assumed): as the sequence (P20138 18-364 D51N limits assumed) above, with I30G, N34D counted along it
human CD33 P48G, sequence (P20138 18-364 P48G limits assumed): as the sequence (P20138 18-364 D51N limits assumed) above, with P31G, N34D counted along it

Mean % WT Binding (human CD33 I47G) [% WT binding] | Mean % WT Binding (human CD33 P48G) [% WT binding] | Mean % WT Binding (human CD33 D51K) [%] | Mean % WT Binding (human CD33 D51N) [%] | Mean % WT Binding (human CD33 K52S) [%] | Mean % WT Binding (human CD33 K52L) [%] | Mean % WT Binding (human CD33 K52Y) [%] | Mean % WT Binding (human CD33 K52D) [%] | Mean % WT Binding (human CD33 K52E) [%] | Mean % WT Binding (human CD33 K52T) [%] | Mean % WT Binding (human CD33 K52I) [%] | Mean % WT Binding (human CD33 V56R) [%] | Mean % WT Binding (human CD33 M120V) [%] | Mean % WT Binding (human CD33 M120L) [%] | Mean % WT Binding (human CD33 R122G) [%] | Mean % WT Binding (human CD33 R122S) [%] | Mean % WT Binding (human CD33 R122I) [%] | Mean % WT Binding (human CD33 R122E) [%] | Mean % WT Binding (human CD33 R122T) [%] | Mean % WT Binding (human CD33 Y127H) [%] | Binder | other results
105 | 89 | – | – | – | – | – | – | – | – | – | – | – | – | – | – | – | – | – | – | Refmab #6 (antibody, human IgG1, V domains shown) VH: QVQLQQPGAEVVKPGASVKMSCKASGYTFTSYYIHWIKQTPGQGLEWVGVIYPGNDDISYNQKFQGKATLTADKSSTTAYMQLSSLTSEDSAVYYCAREVRLRYFDVWGQGTTVTVSS VL: EIVLTQSPGSLAVSPGERVTMSCKSSQSVFFSSSQKNYLAWYQQIPGQSPRLLIYWASTRESGVPDRFTGSGSGTDFTLTISSVQPEDLAIYYCHQYLSSRTFGQGTKLEIK [Refmab #6, listing 1 of 2 here] | –
– | – | 77.7 | 92.6 | 107 | 99.4 | 26.3 | 126 | 121 | 106 | 71.6 | 93.2 | 97 | 101 | 112 | 108 | 107 | 96 | 114 | 112 | Refmab #6 (antibody, human IgG1, V domains shown) VH: QVQLQQPGAEVVKPGASVKMSCKASGYTFTSYYIHWIKQTPGQGLEWVGVIYPGNDDISYNQKFQGKATLTADKSSTTAYMQLSSLTSEDSAVYYCAREVRLRYFDVWGQGTTVTVSS VL: EIVLTQSPGSLAVSPGERVTMSCKSSQSVFFSSSQKNYLAWYQQIPGQSPRLLIYWASTRESGVPDRFTGSGSGTDFTLTISSVQPEDLAIYYCHQYLSSRTFGQGTKLEIK [Refmab #6, listing 2 of 2 here] | Mean % WT Binding (human CD33 Y127E): 102%; Mean % WT Binding (human CD33 S131G): 101%; Mean % WT Binding (human CD33 S131N): 84.6%; Mean % WT Binding (human CD33 S131H): 68.5%; Mean % WT Binding (human CD33 S131D): 88.9%; Mean % WT Binding (human CD33 S131K): 2.5%; Mean % WT Binding (human CD33 S131F): 2.4%; Mean % WT Binding (human CD33 S131Y): 24.5%; Mean % WT Binding (human CD33 S131M): 4.3%; Mean % WT Binding (human CD33 S131Q): 18.9%; Mean % WT Binding (human CD33 P132T): 11.7%; Mean % WT Binding (human CD33 P132F): 1.6%; Mean % WT Binding (human CD33 P132D): 87.6%; Mean % WT Binding (human CD33 P132K): 2.2%; Mean % WT Binding (human CD33 P132N): 2.2%; Mean % WT Binding (human CD33 L134T): 88.4%; Mean % WT Binding (human CD33 L134F): 90.7%; Mean % WT Binding (human CD33 L134M): 99.5%
80.9 | 3.5 | – | – | – | – | – | – | – | – | – | – | – | – | – | – | – | – | – | – | Refmab #5 (antibody, human IgG1, V domains shown) VH: QVQLVQSGAEVKKPGASVKVSCKASGYTFTNYDINWVRQAPGQGLEWIGWIYPGDGSTKYNEKFKAKATLTADTSTSTAYMELRSLRSDDTAVYYCASGYEDAMDYWGQGTTVTVSS VL: DIQMTQSPSSLSASVGDRVTINCKASQDINSYLSWFQQKPGKAPKTLIYRANRLVDGVPSRFSGSGSGQDYTLTISSLQPEDFATYYCLQYDEFPLTFGGGTKVEIK [Refmab #5, listing 1 of 2 here] | –
– | – | 4.2 | 89.4 | 3.8 | 2.2 | 2 | 3.2 | 13.8 | 5 | 1.9 | 87.4 | 85.9 | 103 | 94.9 | 90.6 | 86.1 | 95.8 | 83.2 | 97.2 | Refmab #5 (antibody, human IgG1, V domains shown) VH: QVQLVQSGAEVKKPGASVKVSCKASGYTFTNYDINWVRQAPGQGLEWIGWIYPGDGSTKYNEKFKAKATLTADTSTSTAYMELRSLRSDDTAVYYCASGYEDAMDYWGQGTTVTVSS VL: DIQMTQSPSSLSASVGDRVTINCKASQDINSYLSWFQQKPGKAPKTLIYRANRLVDGVPSRFSGSGSGQDYTLTISSLQPEDFATYYCLQYDEFPLTFGGGTKVEIK [Refmab #5, listing 2 of 2 here] | Mean % WT Binding (human CD33 Y127E): 93.9%; Mean % WT Binding (human CD33 S131G): 97.1%; Mean % WT Binding (human CD33 S131N): 101%; Mean % WT Binding (human CD33 S131H): 96.8%; Mean % WT Binding (human CD33 S131D): 102%; Mean % WT Binding (human CD33 S131K): 96.4%; Mean % WT Binding (human CD33 S131F): 82.3%; Mean % WT Binding (human CD33 S131Y): 89.5%; Mean % WT Binding (human CD33 S131M): 83.8%; Mean % WT Binding (human CD33 S131Q): 80.6%; Mean % WT Binding (human CD33 P132T): 93.1%; Mean % WT Binding (human CD33 P132F): 68.5%; Mean % WT Binding (human CD33 P132D): 90.5%; Mean % WT Binding (human CD33 P132K): 97.1%; Mean % WT Binding (human CD33 P132N): 101%; Mean % WT Binding (human CD33 L134T): 96.5%; Mean % WT Binding (human CD33 L134F): 102%; Mean % WT Binding (human CD33 L134M): 86.1%

Source: patent US20260242735A1 (UNIVERSIT T BASEL, published 2026)
